Patent publication CN112250763A (SANYOU BIOPHARMACEUTICALS SHANGHAI CO LTD; SHANGHAI ZJ BIO …, dated 2021)

Biological target: S蛋白RBD-His(319Arg-532Asn) (SARS-CoV-2, UniProt P0DTC2 319-532)

B1: R16-F10抗体 (antibody, V domains shown)
VH: QVQLVQSGPEVKEPGSSVKVSCKASGGTFDTAAISWVRQAPGQGPEWMGGIIPIFGTANYAQKFQGRVTITADESTSTAYMELSSLRSEDTAVYYCAREHTVAPVYGFDVWGQGTLVTVSS
VL: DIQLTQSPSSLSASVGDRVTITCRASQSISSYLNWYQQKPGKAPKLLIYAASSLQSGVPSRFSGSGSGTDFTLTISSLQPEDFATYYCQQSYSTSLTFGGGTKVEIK
EC50: 0.05 µg/mL
